± gives the standard error. Fewer inactive variants are shown than the library holds.
B1: glmS ribozyme (parent)
chain: AUAAAAGCGCCAGAACUACAGAAAUGUAGUUGACGAGGAGGAGGUUUAUCGAAUUUUCGGCGGAUGCCUCCAAA

What was measured:
Settings in all cases: with glucosamine-6-phosphate
glucosamine-6-phosphate [1] = variants of: B1; assay: self-cleavage kobs at 160 uM GlcN6P; higher = faster cleavage; RNA array
Procedure, shortened: (§1)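 The measurements used barcoded ribozyme variants on sequenced MiSeq chips, transcribed in situ by E. coli RNA polymerase and tracked at 37 °C with a hybridised Cy3 probe. Glucosamine-6-phosphate, 40 μM to 10 mM in HEPES/KCl/Mg(OAc)2 buffer, was flowed in while tiles were imaged over ~14 h. Baseline-normalised signals, also normalised to non-cleaving reference variants, gave per-tile medians that were fit to one- or two-exponential decays for kobs. kcat and KM resulted from weighted Michaelis–Menten fits across concentrations.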

glucosamine-6-phosphate [2] = variants of: B1; assay: self-cleavage kobs at 640 uM GlcN6P; higher = faster cleavage; RNA array
Procedure, shortened: as §1

glucosamine-6-phosphate [3] = variants of: B1; assay: self-cleavage kobs at 2500 uM GlcN6P; higher = faster cleavage; RNA array
Procedure, shortened: as §1

glucosamine-6-phosphate [4] = variants of: B1; assay: self-cleavage kobs at 10000 uM GlcN6P; higher = faster cleavage; RNA array
Procedure, shortened: as §1

| Variant | self-cleavage kobs at 160 uM GlcN6P (glucosamine-6-phosphate [1]) [s⁻¹] | self-cleavage kobs at 640 uM GlcN6P (glucosamine-6-phosphate [2]) [s⁻¹] | self-cleavage kobs at 2500 uM GlcN6P (glucosamine-6-phosphate [3]) [s⁻¹] | self-cleavage kobs at 10000 uM GlcN6P (glucosamine-6-phosphate [4]) [s⁻¹] |
| --- | --- | --- | --- | --- |
| G29U G60U | < 1e-05 | < 1e-05 | < 1e-05 | < 1e-05 |
| C34U C50G C68A | 9.29e-05 ± 2.9e-05 |  | 9.73e-05 ± 2.8e-05 |  |
| C16U U31C C68U | 6.38e-05 ± 2.3e-05 | 0.000149 ± 3.2e-05 | 0.00018 ± 4e-05 |  |
| C8U A42U A64C U69C | < 1e-05 | < 1e-05 |  |  |
| G38A C61U C70G | < 1e-05 |  |  |  |
| A48C C58G C71A | < 1e-05 | < 1e-05 |  |  |
| G29U A36G A52G | < 1e-05 |  | < 1e-05 |  |
| G7U C11U G29U U30A | < 1e-05 | < 1e-05 |  |  |
| C8U U47C A48C C67G | < 1e-05 | < 1e-05 | < 1e-05 |  |
| G35U G43U A53C C70A | < 1e-05 |  |  |  |
| G9C G40A | < 1e-05 | < 1e-05 | < 1e-05 | < 1e-05 |
| A6G A12U A36C G43C | < 1e-05 | < 1e-05 | < 1e-05 |  |
| G41A U55G C71A | 5.4e-05 ± 1.6e-05 | 8.59e-05 ± 2.3e-05 | 0.000196 ± 3.5e-05 |  |
| G63A G66C | < 1e-05 | < 1e-05 | < 1e-05 | < 1e-05 |
| G13C A14C U55G G59U | < 1e-05 | < 1e-05 |  |  |
| G13U A14U U57C | < 1e-05 |  | < 1e-05 |  |
| C8U G9C G62A U65G | < 1e-05 |  | < 1e-05 |  |
| A36U A48G | < 1e-05 | < 1e-05 |  | < 1e-05 |
| C34U C67U | < 1e-05 |  | < 1e-05 |  |
| C34U C67A | < 1e-05 |  | < 1e-05 |  |
| A12G U46C A48U | < 1e-05 |  |  |  |
| G43A G60C | < 1e-05 | < 1e-05 | < 1e-05 | < 1e-05 |
| A14C C16G G38A A48G U49A | < 1e-05 |  |  |  |
| C11U G51U A53G | < 1e-05 |  |  |  |
| U30G G32A G35A C67U | < 1e-05 | < 1e-05 |  |  |

| Variant | self-cleavage kobs at 160 uM GlcN6P (glucosamine-6-phosphate [1]) [s⁻¹] | self-cleavage kobs at 640 uM GlcN6P (glucosamine-6-phosphate [2]) [s⁻¹] | self-cleavage kobs at 2500 uM GlcN6P (glucosamine-6-phosphate [3]) [s⁻¹] | self-cleavage kobs at 10000 uM GlcN6P (glucosamine-6-phosphate [4]) [s⁻¹] |
| --- | --- | --- | --- | --- |
| U49C G62U | < 1e-05 | < 1e-05 | < 1e-05 | < 1e-05 |
| G32U G41U G60A | < 1e-05 |  | < 1e-05 |  |
| C8U G29U G41A G44C | < 1e-05 |  |  |  |
| G9A C11A G35A U47C C68A | < 1e-05 |  | < 1e-05 |  |
| U45A A53G C71U | 0.00381 ± 0.0013 | 0.00623 ± 0.0015 | 0.00735 ± 0.0025 |  |
| G9A U65G | < 1e-05 | < 1e-05 |  |  |
| U55A A64G C71A | 0.000178 ± 4.2e-05 | 0.000572 ± 0.00013 |  |  |
| A14U C50U G51U | < 1e-05 | < 1e-05 | < 1e-05 | < 1e-05 |
| A12G G35A | < 1e-05 | < 1e-05 |  | < 1e-05 |
| G29U U49C C50G C70A | 5.5e-05 ± 2.2e-05 | 0.000125 ± 5.5e-05 |  |  |
| C10U G13C | < 1e-05 |  |  | < 1e-05 |
| C8A A33C G35U G63U | < 1e-05 | < 1e-05 | < 1e-05 |  |
| G40C G44A A53C | < 1e-05 | < 1e-05 | < 1e-05 |  |
| A14G C16U C34A G41A A52C | < 1e-05 |  | < 1e-05 |  |
| C8G U30G G37A G66A U69G | 0.000132 ± 4.9e-05 | 0.000166 ± 6e-05 |  |  |
| A14C C16A U31C G35C U55G | < 1e-05 |  | < 1e-05 | < 1e-05 |
| C34U C71U | < 1e-05 | < 1e-05 | < 1e-05 | < 1e-05 |
| C10G C19A A48C | < 1e-05 | < 1e-05 |  |  |
| U31G A33U G38U | < 1e-05 |  |  |  |
| A33U C68A C70G | < 1e-05 |  | < 1e-05 |  |
| A14C C34A A48C C61G | < 1e-05 |  | < 1e-05 | < 1e-05 |
| C8A C16U U31C G38A U56C | < 1e-05 |  |  | < 1e-05 |
| G29A A53U C67A | 7.84e-05 ± 1.8e-05 | 0.00017 ± 4e-05 | 0.000241 ± 7.1e-05 |  |
| C8G U47G U54A G63U | < 1e-05 | < 1e-05 | < 1e-05 |  |
| G38C G44U C50U | < 1e-05 | < 1e-05 |  |  |

| Variant | self-cleavage kobs at 160 uM GlcN6P (glucosamine-6-phosphate [1]) [s⁻¹] | self-cleavage kobs at 640 uM GlcN6P (glucosamine-6-phosphate [2]) [s⁻¹] | self-cleavage kobs at 2500 uM GlcN6P (glucosamine-6-phosphate [3]) [s⁻¹] | self-cleavage kobs at 10000 uM GlcN6P (glucosamine-6-phosphate [4]) [s⁻¹] |
| --- | --- | --- | --- | --- |
| G32U G35A A42C | < 1e-05 | < 1e-05 | < 1e-05 |  |
| A53C U56A G59C G63U | < 1e-05 | < 1e-05 | < 1e-05 |  |
| A6C G35C U46A C61A | < 1e-05 | < 1e-05 | < 1e-05 |  |
| C8U G32U C50G | 0.000945 ± 0.00017 | 0.000695 ± 0.00016 | 0.000269 ± 8.5e-05 |  |
| G9A A42G G44C U56G U65G | < 1e-05 | < 1e-05 |  |  |
| C16U U65A U69A | 3.44e-05 ± 1.7e-05 | 0.000105 ± 2.4e-05 | 4.97e-05 ± 1.7e-05 | 2.63e-05 ± 1.2e-05 |
| G9U C67A | < 1e-05 | < 1e-05 | < 1e-05 | < 1e-05 |
| G35A G43U U45C A53G G59A | < 1e-05 | < 1e-05 |  |  |
| A6U C8U C70U | < 1e-05 |  | < 1e-05 | < 1e-05 |
| G37A G60A G66U | < 1e-05 |  |  |  |
| G7A G9U C50U | < 1e-05 |  | < 1e-05 |  |
| G13C C34U | < 1e-05 | < 1e-05 | < 1e-05 | < 1e-05 |
| A33C U56C | < 1e-05 | < 1e-05 | < 1e-05 | < 1e-05 |
| G43A U45A C61G | < 1e-05 | < 1e-05 |  |  |
| A33U G35U A42U G44U | < 1e-05 | < 1e-05 | < 1e-05 |  |
| G9U A52C | < 1e-05 |  | < 1e-05 |  |
| U30A U31C G60A C71A | < 1e-05 |  |  |  |
| C8G C11G G43A | < 1e-05 | < 1e-05 | < 1e-05 |  |
| C8G G59A C71G | < 1e-05 |  |  |  |
| C11A A39C C70G | < 1e-05 | < 1e-05 | < 1e-05 |  |
| A48U G59C | < 1e-05 | < 1e-05 | < 1e-05 | < 1e-05 |
| A48U G51U | < 1e-05 |  | < 1e-05 |  |
| C16G A42G G60C C70U | < 1e-05 |  | < 1e-05 |  |
| G13A G43C G66A | < 1e-05 |  | < 1e-05 | < 1e-05 |
| C8G U56A G62U | < 1e-05 | < 1e-05 | < 1e-05 |  |

| Variant | self-cleavage kobs at 160 uM GlcN6P (glucosamine-6-phosphate [1]) [s⁻¹] | self-cleavage kobs at 640 uM GlcN6P (glucosamine-6-phosphate [2]) [s⁻¹] | self-cleavage kobs at 2500 uM GlcN6P (glucosamine-6-phosphate [3]) [s⁻¹] | self-cleavage kobs at 10000 uM GlcN6P (glucosamine-6-phosphate [4]) [s⁻¹] |
| --- | --- | --- | --- | --- |
| A15C A39G U56G C61G | < 1e-05 | < 1e-05 | < 1e-05 |  |
| G9U A33U A53G G66U | < 1e-05 |  |  |  |
| G29U G43C U47A G63A | < 1e-05 | < 1e-05 | < 1e-05 |  |
| G29U G32A G37U G66A | < 1e-05 | < 1e-05 | < 1e-05 |  |
| C10U A33C G59A G66U | < 1e-05 | < 1e-05 |  |  |
| G29U U45C U56C | < 1e-05 |  |  |  |
| G7A U54C U65G C67U | < 1e-05 | < 1e-05 | < 1e-05 |  |
| A6G C50U U55C | < 1e-05 | < 1e-05 | < 1e-05 | < 1e-05 |
| U31A G62C C71U | < 1e-05 | < 1e-05 |  |  |
| G29C G32C G37U U45G | < 1e-05 | < 1e-05 | < 1e-05 |  |
| A14C G29U C50U A52G C58G | 0.000474 ± 0.00018 |  | 7.98e-05 ± 3.9e-05 |  |
| A14C A48U G60U | < 1e-05 | < 1e-05 |  |  |
| A12G G51A | < 1e-05 | < 1e-05 |  | < 1e-05 |
| A36C G41A G66U | < 1e-05 |  | < 1e-05 |  |
| G51U G60C C70U | < 1e-05 | < 1e-05 |  |  |
| G32A A53C C71U | 3.67e-05 ± 1.6e-05 | 7.17e-05 ± 2.3e-05 | 0.000197 ± 4.7e-05 |  |
| G32A A42G U56A C70A | < 1e-05 |  |  |  |
| G35U C61U | < 1e-05 | < 1e-05 | < 1e-05 |  |
| C8G C16G | < 1e-05 | < 1e-05 | < 1e-05 | < 1e-05 |
| G7C C8U A15G G35A | < 1e-05 |  | < 1e-05 |  |
| A33C U45G U55C U57C A64U | < 1e-05 | < 1e-05 | < 1e-05 |  |
| C58G C70A | 0.000411 ± 0.00017 | 4.04e-05 ± 1.9e-05 | 5.93e-05 ± 1.4e-05 |  |
| C50G G59U | 7.49e-05 ± 1.3e-05 | 0.000241 ± 8.6e-05 | 0.000355 ± 0.0001 |  |
| A12U C34A | < 1e-05 | < 1e-05 |  |  |
| C11G A14G G29A | < 1e-05 |  |  |  |

Source: the supplement of paper PMC7125110
